Molecular target: T1, NPY-Y2 receptor (Homo sapiens, UniProt P49146)
T1 construct: the appropriate cells (SK-N-MC for NPY-Y1; host or cells: SK-N-BE2 human neuroblastoma cells (membrane homogenate)
T1 sequence (P49146 1-381): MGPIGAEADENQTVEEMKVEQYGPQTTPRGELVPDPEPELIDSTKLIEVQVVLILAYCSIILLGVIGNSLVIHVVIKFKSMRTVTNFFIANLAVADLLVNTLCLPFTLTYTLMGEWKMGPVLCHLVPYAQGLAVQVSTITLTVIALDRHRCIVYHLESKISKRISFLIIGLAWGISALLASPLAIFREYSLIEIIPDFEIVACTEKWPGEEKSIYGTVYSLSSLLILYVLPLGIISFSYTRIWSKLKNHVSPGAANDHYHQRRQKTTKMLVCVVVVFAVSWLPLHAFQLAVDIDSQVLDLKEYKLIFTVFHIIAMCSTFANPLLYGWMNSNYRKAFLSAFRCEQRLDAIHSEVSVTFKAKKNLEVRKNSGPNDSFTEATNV
Assay: In vitro radioligand NPY-Y2 receptor binding assay ([125I]PYY, SK-N-BE2 cell membranes)
Settings: [125I]PYY displacement
Description: In Vitro Radioligand NPY-Y1 and NPY-Y2 Receptor Binding Assays
Human neuroblastoma cell lines, SK-N-MC and SK-N-BE2 (American Type Culture Collection, Rockville, Md., USA), expressing the NPY-Y1 and NPY-Y2 receptors, respectfully, were cultured in EMEM containing 10% fetal calf serum and 5% chicken embryo extract, maintained at 37° C. in a humidified atmosphere of and 95% air and 5% CO2.
For the in vitro NPY-Y1 and NPY-Y2 radioligand binding assays, the appropriate cells (SK-N-MC for NPY-Y1; SK-N-BE2 for NPY-Y2) were harvested and then homogenized in 20 ml of ice-cold 50 mM Tris-HCl with a Brinkman Polytron (Westbury, N.Y., USA) (setting 6, 15 sec). The homogenates were washed twice by centrifugation (39,000 g/10 min), and the final pellets were resuspended in 50 mM Tris-HCl, containing 2.5 mM MgCl2, 0.1 mg/ml bacitracin (Sigma Chemical, St. Louis, Mo., USA), and 0.1% BSA.

Row | Substance | Ki [nM]
1 | [Camptothecin-rvD/L-Asp-Suc-Tyr^1, Nle^17, A6c^31, 4Hyp^34]hNPY(1-36)-NH2 [93/93A] | > 1000
2 | [camptothecin-rvD/Lasp-Suc-Tyr^1, Nle^17, 4Hyp^34]hNPY(1-36)-NH2 [Example 92/92A] | > 1000

Reference: patent US8877715B2, “Cytotoxic conjugates having neuropeptide Y receptor binding compound” (priority 2009, dated 2014)
